This note sets out measurements from doi:10.1101/2021.01.21.427698 (bioRxiv, 2021).

Residue numbers refer to the chain shown, from its start.

Sequences and labels used below:
B1: SEPT2-msfGFP human septin octamers containing SEPT9_i3 (complex)
chain 1: MSKQQPTQFINPETPGYVGFANLPNQVHRKSVKKGFEFTLMVVGESGLGKSTLINSLFLTDLYPERVIPGAAEKIERTVQIEASTVEIEERGVKLRLTVVDTPGYGDAINCRDCFKTIISYIDEQFERYLHDESGLNRRHIIDNRVHCCFYFISPFGHGLKPLDVAFMKAIHNKVNIVPVIAKADTLTLKERERLKKRILDEIEEHNIKIYHLPDAESDEDEDFKEQTRLLKASIPFSVVGSNQLIEAKGKKVRGRLYPWGVVEVENPEHNDFLKLRTMLITHMQDLQEVTQDLHYENFRSERLKRGGRKVENEDMNKDQILLEKEAELRRMQEMIARMQAQMQMQMQGGDGDGGALGHHV
chain 2: MAATDIARQVGEGCRTVPLAGHVGFDSLPDQLVNKSVSQGFCFNILCVGETGLGKSTLMDTLFNTKFEGEPATHTQPGVQLQSNTYDLQESNVRLKLTIVSTVGFGDQINKEDSYKPIVEFIDAQFEAYLQEELKIRRVLHTYHDSRIHVCLYFIAPTGHSLKSLDLVTMKKLDSKVNIIPIIAKADAISKSELTKFKIKITSELVSNGVQIYQFPTDDESVAEINGTMNAHLPFAVIGSTEELKIGNKMMRARQYPWGTVQVENEAHCDFVKLREMLIRVNMEDLREQTHTRHYELYRRCKLEEMGFKDTDPDSKPFSLQETYEAKRNEFLGELQKKEEEMRQMFVQRVKEKEAELKEAEKELHEKFDRLKKLHQDEKKKLEDKKKSLDDEVNAFKQRKTAAELLQSQGSQAGGSQTLKRDKEKKN
chain 3: MSVSARSAAAEERSVNSSTMVAQQKNLEGYVGFANLPNQVYRKSVKRGFEFTLMVVGESGLGKSTLINSLFLTDLYSPEYPGPSHRIKKTVQVEQSKVLIKEGGVQLLLTIVDTPGFGDAVDNSNCWQPVIDYIDSKFEDYLNAESRVNRRQMPDNRVQCCLYFIAPSGHGLKPLDIEFMKRLHEKVNIIPLIAKADTLTPEECQQFKKQIMKEIQEHKIKIYEFPETDDEEENKLVKKIKDRLPLAVVGSNTIIEVNGKRVRGRQYPWGVAEVENGEHCDFTILRNMLIRTHMQDLKDVTNNVHYENYRSRKLAAVTYNGVDNNKNKGQLTKSPLAQMEEERREHVAKMKKMEMEMEQVFEMKVKEKVQKLKDSEAELQRRHEQMKKNLEAQHKELEEKRRQFEDEKANWEAQQRILEQQNSSRTLEKNKKKGKIF
chain 4: MERDRISALKRSFEVEEVETPNSTPPRRVQTPLLRATVASSTQKFQDLGVKNSEPSARHVDSLSQRSPKASLRRVELSGPKAAEPVSRRTELSIDISSKQVENAGAIGPSRFGLKRAEVLGHKTPEPAPRRTEITIVKPQESAHRRMEPPASKVPEVPTAPATDAAPKRVEIQMPKPAEAPTAPSPAQTLENSEPAPVSQLQSRLEPKPQPPVAEATPRSQEATEAAPSCVGDMADTPRDAGLKQAPASRNEKAPVDFGYVGIDSILEQMRRKAMKQGFEFNIMVVGQSGLGKSTLINTLFKSKISRKSVQPTSEERIPKTIEIKSITHDIEEKGVRMKLTVIDTPGFGDHINNENCWQPIMKFINDQYEKYLQEEVNINRKKRIPDTRVHCCLYFIPATGHSLRPLDIEFMKRLSKVVNIVPVIAKADTLTLEERVHFKQRITADLLSNGIDVYPQKEFDEDSEDRLVNEKFREMIPFAVVGSDHEYQVNGKRILGRKTKWGTIEVENTTHCEFAYLRDLLIRTHMQNIKDITSSIHFEAYRVKRLNEGSSAMANGVEEKEPEAPEM
B2: recombinant Drosophila septin hexamers (DSep1-msfGFP, DSep2, Peanut) (complex)
chain 1: MADTKGFSSIETPGYVGFANLPNQVHRKSVKKGFEFTLMVVGESGLGKSTLVNSLFLTDLYPERIIPDAIEKQKQTVKLEASTVEIEERGVKLRLTVVDTPGFGDAIDNSNSFGAILEYIDEQYERFLRDESGLNRRNIVDNRIHCCFYFISPFGHGLKPLDVEFMKKLHSKVNIVPVIAKADCLTKKEILRLKCRIMQEIESHGIKIYPLPDCDSDEDEDYKEQVKQLKEAVPFAVCGANTLLEVKGKKVRGRLYPWGVVEVENPDHCDFIKLRTMLITHMQDLQEVTQEVHYENYRSDRLAKGIKGKENGVKAERDSSSQVVSNSVLGEKDRILQEKEAELRRMQEMLAQMQARMQAQQ
chain 2: MSVEVDFVDKKEVHLRTLKQSGHVGFDSLPDQLVNKSVQNGFVFNVMCIGETGLGKSTLMDTLFNTSFESTPSPHTLPSVKLKAHTYELQESNVRLKLTICDTVGYGDQINKDDSFKAVVDYIDAQFENYLQEELKIKRSLVTCHDSRIHICLYFICPTGHGLKSLDLVCMKKLDSKVNIIPVIAKADTISKVELQRFKAKIIQELNANGVHIYQFPTDDETVAETNTSMNSHIPFAVVGSTEFIKVGNKLIRARQYPWGTVQVENETHCDFVKLREMLIRTNMEDMREKTHTRHYELYRQKRLEQMGFSDVDSDNKPISFQQTFEAKRSNHLAELQSKEEEVRQMFVQRVKEKEAELKESEKDLHAKFEKLKRDHAEEKRKLEESRKALEEDYLDFQRRKQQLATAHHTLTLGKSKKK
chain 3: MNSPRSNAVNGGSGGAISALPSTLAQLALRDKQQAASASASSATNGSSGSESLVGVGGRPPNQPPSVPVAASGKLDTSGGGASNGDSNKLTHDLQEKEHQQAQKPQKPPLPVRQKPMEIAGYVGFANLPNQVYRKAVKRGFEFTLMVVGASGLGKSTLINSMFLSDIYNAEQYPGPSLRKKKTVAVEATKVMLKENGVNLTLTVVDTPGFGDAVDNSNCWVPILEYVDSKYEEYLTAESRVYRKTISDSRVHCCLYFIAPSGHGLLPLDIACMQSLSDKVNLVPVIAKADTMTPDEVHLFKKQILNEIAQHKIKIYDFPATLEDAAEEAKTTQNLRSRVPFAVVGANTIIEQDGKKVRGRRYPWGLVEVENLTHCDFIALRNMVIRTHLQDLKDVTNNVHYENYRCRKLSELGLVDGKARLSNKNPLTQMEEEKREHEQKMKKMEAEMEQVFDMKVKEKMQKLRDSELELARRHEERKKALELQIRELEEKRREFEREKKEWEDVNHVTLEELKRRSLGANSSTDNVDGKKEKKKKGLF
B3: recombinant mammalian SEPT2-, SEPT6-, SEPT7-containing hexamers (mouse SEPT2, human SEPT6, human SEPT7ΔN19) (complex)
chain 1: B1 chain 1 with V67I, N207S, G352S, G354S, H359Q
chain 2: B1 chain 2
chain 3: MVAQQKNLEGYVGFANLPNQVYRKSVKRGFEFTLMVVGESGLGKSTLINSLFLTDLYSPEYPGPSHRIKKTVQVEQSKVLIKEGGVQLLLTIVDTPGFGDAVDNSNCWQPVIDYIDSKFEDYLNAESRVNRRQMPDNRVQCCLYFIAPSGHGLKPLDIEFMKRLHEKVNIIPLIAKADTLTPEECQQFKKQIMKEIQEHKIKIYEFPETDDEEENKLVKKIKDRLPLAVVGSNTIIEVNGKRVRGRQYPWGVAEVENGEHCDFTILRNMLIRTHMQDLKDVTNNVHYENYRSRKLAAVTYNGVDNNKNKGQLTKSPLAQMEEERREHVAKMKKMEMEMEQVFEMKVKEKVQKLKDSEAELQRRHEQMKKNLEAQHKELEEKRRQFEDEKANWEAQQRILEQQNSSRTLEKNKKKGKIF
B4: recombinant human septin octamers containing SEPT9_i3 (nonfluorescent) (complex)
chain 1: B1 chain 1
chain 2: B1 chain 2
chain 3: B1 chain 3
chain 4: B1 chain 4
B5: recombinant human septin octamers containing SEPT9_i1 (nonfluorescent) (complex)
chain 1: B1 chain 1
chain 2: B1 chain 2
chain 3: B1 chain 3
chain 4: MKKSYSGGTRTSSGRLRRLGDSSGPALKRSFEVEEVETPNSTPPRRVQTPLLRATVASSTQKFQDLGVKNSEPSARHVDSLSQRSPKASLRRVELSGPKAAEPVSRRTELSIDISSKQVENAGAIGPSRFGLKRAEVLGHKTPEPAPRRTEITIVKPQESAHRRMEPPASKVPEVPTAPATDAAPKRVEIQMPKPAEAPTAPSPAQTLENSEPAPVSQLQSRLEPKPQPPVAEATPRSQEATEAAPSCVGDMADTPRDAGLKQAPASRNEKAPVDFGYVGIDSILEQMRRKAMKQGFEFNIMVVGQSGLGKSTLINTLFKSKISRKSVQPTSEERIPKTIEIKSITHDIEEKGVRMKLTVIDTPGFGDHINNENCWQPIMKFINDQYEKYLQEEVNINRKKRIPDTRVHCCLYFIPATGHSLRPLDIEFMKRLSKVVNIVPVIAKADTLTLEERVHFKQRITADLLSNGIDVYPQKEFDEDSEDRLVNEKFREMIPFAVVGSDHEYQVNGKRILGRKTKWGTIEVENTTHCEFAYLRDLLIRTHMQNIKDITSSIHFEAYRVKRLNEGSSAMANGVEEKEPEAPEM
B6: recombinant mammalian SEPT9_i3-containing octamers (mouse SEPT2, human SEPT6, human SEPT7ΔN19, human SEPT9_i3) (complex)
chain 1: B1 chain 1 with V67I, N207S, G352S, G354S, H359Q
chain 2: B1 chain 2
chain 3: B3 chain 3
chain 4: B1 chain 4

The first data set deals with the molecule itself. The experiment in a line: spinning disk fluorescence microscopy of septin polymerisation.
Regarding B1, the binding result is “binds”.

As for B2, the binding result is on record as “binds”.

The next data set concerns the molecule itself. The experiment in a line: negative-stain electron microscopy of septin polymerisation.
Take B3: the binding result is reported as “binds”.

As for B4, the binding result is recorded as “binds”.

Take B5: the binding result is “binds”.

For B6, the binding result is “binds”.
